Assay results taken from patent publication US20240066131A1 (Protagonist Therapeutics, Inc., priority 2020, published 2024).
Starred links: 1 amine or outer side, 2 acyl side, 3 side chain; linkers in the order of their positions; H or OH if unused. Non-standard residues stand in square brackets, D forms with d. Groups on a side chain read outwards from the residue. *: point of attachment. ButanoicP = (R)-4-(pyrrolidin-2-yl)butanoic acid, O=C(CCC[C@@H]1CCCN1[*:1])[*:2]; C18 diacid = O=C(O)CCCCCCCCCCCCCCCCC(=O)*; Dip = N[C@H](C(=O)O)C(c1ccccc1)c1ccccc1; Palmitoyl = CCCCCCCCCCCCCCCC(=O)*; NMeF = CN[C@@H](Cc1ccccc1)C(=O)O; β3hF = N[C@H](CC(=O)O)Cc1ccccc1; Isovaleryl = CC(C)CC(=O)*; (Me)Leu = methyl-leucine; AEEA = NCCOCCOCC(=O)O; Ahx = NCCCCCC(=O)O

B1: Isovaleric Acid-L-T-H-[Dpa]-P-L-I-[Lys(Ahx_Palm)]-[(Me)Leu]-NH2 (peptide)
peptide: Isovaleryl-LTH[Dip]PLIK([Ahx-Palmitoyl])[(Me)Leu]-NH2
B2: Isovaleric Acid-E-T-H-[Dpa]-P-A-I-[(D)Lys]-[Lys(Ac)]-NH2 (peptide)
peptide: Isovaleryl-ETH[Dip]PAI[dK]K(Ac)-NH2
B3: Isovaleric Acid-[(D)Arg]-T-H-[Dpa]-P-A-I-[Lys(1PEG2_1PEG2_Ahx_C18_Diacid)]-[bhPhe]-[(D)Lys]-NH2 (peptide)
peptide: Isovaleryl-[dR]TH[Dip]PAIK([AEEA-AEEA-Ahx-C18 diacid])[β3hF][dK]-NH2
SMILES: CC[C@H](C)[C@H](NC(=O)[C@H](C)NC(=O)[C@@H]1CCCN1C(=O)[C@@H](NC(=O)[C@H](Cc1c[nH]cn1)NC(=O)[C@@H](NC(=O)[C@@H](CCCNC(=N)N)NC(=O)CC(C)C)[C@@H](C)O)C(c1ccccc1)c1ccccc1)C(=O)N[C@@H](CCCCNC(=O)COCCOCCNC(=O)COCCOCCNC(=O)CCCCCNC(=O)CCCCCCCCCCCCCCCCC(=O)O)C(=O)N[C@H](CC(=O)N[C@H](CCCCN)C(N)=O)Cc1ccccc1
B4: Isovaleric Acid-E-T-H-[Dpa]-P-I-[(D)Lys]-[bhPhe]-[Lys(Ahx_Palm)]-NH2 (peptide)
peptide: Isovaleryl-ETH[Dip]PI[dK][β3hF]K([Ahx-Palmitoyl])-NH2
SMILES: CCCCCCCCCCCCCCCC(=O)NCCCCCC(=O)NCCCC[C@H](NC(=O)C[C@H](Cc1ccccc1)NC(=O)[C@@H](CCCCN)NC(=O)[C@@H](NC(=O)[C@@H]1CCCN1C(=O)[C@@H](NC(=O)[C@H](Cc1c[nH]cn1)NC(=O)[C@@H](NC(=O)[C@H](CCC(=O)O)NC(=O)CC(C)C)[C@@H](C)O)C(c1ccccc1)c1ccccc1)[C@@H](C)CC)C(N)=O
B5: Isovaleric Acid-L-T-H-[Dpa]-P-A-I-[Lys(Ahx_Palm)]-[(Me)Phe]-NH2 (peptide)
peptide: Isovaleryl-LTH[Dip]PAIK([Ahx-Palmitoyl])[NMeF]-NH2
SMILES: CCCCCCCCCCCCCCCC(=O)NCCCCCC(=O)NCCCC[C@H](NC(=O)[C@@H](NC(=O)[C@H](C)NC(=O)[C@@H]1CCCN1C(=O)[C@@H](NC(=O)[C@H](Cc1c[nH]cn1)NC(=O)[C@@H](NC(=O)[C@H](CC(C)C)NC(=O)CC(C)C)[C@@H](C)O)C(c1ccccc1)c1ccccc1)[C@@H](C)CC)C(=O)N(C)[C@@H](Cc1ccccc1)C(N)=O
B6: Isovaleric Acid-E-T-H-[Dpa]-P-[Lys(Ac)]-NH2 (peptide)
peptide: XETHXPX
modifications: N-term Isovaleric Acid; Dpa4; Lys(Ac)6; C-term NH2
B7: Isovaleric Acid-L-T-H-[Dpa]-P-[(Me)Leu]-I-[Lys(Ahx_Palm)]-L-NH2 (peptide)
peptide: Isovaleryl-LTH[Dip]P[(Me)Leu]IK([Ahx-Palmitoyl])L-NH2
B8: Isovaleric Acid-L-T-H-[Dpa]-P-L-I-[Lys(Ahx_Palm)]-[(Me)Phe]-NH2 (peptide)
peptide: Isovaleryl-LTH[Dip]PLIK([Ahx-Palmitoyl])[NMeF]-NH2
SMILES: CCCCCCCCCCCCCCCC(=O)NCCCCCC(=O)NCCCC[C@H](NC(=O)[C@@H](NC(=O)[C@H](CC(C)C)NC(=O)[C@@H]1CCCN1C(=O)[C@@H](NC(=O)[C@H](Cc1c[nH]cn1)NC(=O)[C@@H](NC(=O)[C@H](CC(C)C)NC(=O)CC(C)C)[C@@H](C)O)C(c1ccccc1)c1ccccc1)[C@@H](C)CC)C(=O)N(C)[C@@H](Cc1ccccc1)C(N)=O
B9: Isovaleric Acid-E-T-H-[Dpa]-P-A-I-[Lys(1Peg2_1Peg2_Ahx_C18_Diacid)]-NH2 (peptide)
peptide: Isovaleryl-ETH[Dip]PAIK([AEEA-AEEA-Ahx-C18 diacid])-NH2
B10: Isovaleric Acid-E-T-H-[Dpa]-P-A-I-[Lys(Ahx_Palm)]-[bhPhe]-NH2 (peptide)
peptide: Isovaleryl-ETH[Dip]PAIK([Ahx-Palmitoyl])[β3hF]-NH2
SMILES: CCCCCCCCCCCCCCCC(=O)NCCCCCC(=O)NCCCC[C@H](NC(=O)[C@@H](NC(=O)[C@H](C)NC(=O)[C@@H]1CCCN1C(=O)[C@@H](NC(=O)[C@H](Cc1c[nH]cn1)NC(=O)[C@@H](NC(=O)[C@H](CCC(=O)O)NC(=O)CC(C)C)[C@@H](C)O)C(c1ccccc1)c1ccccc1)[C@@H](C)CC)C(=O)N[C@H](CC(N)=O)Cc1ccccc1
B11: Isovaleric Acid-E-T-H-[Dpa]-P-F-I-[(D)Lys]-[bhPhe]-[Lys(Ahx_Palm)]-NH2 (peptide)
peptide: Isovaleryl-ETH[Dip]PFI[dK][β3hF]K([Ahx-Palmitoyl])-NH2
SMILES: CCCCCCCCCCCCCCCC(=O)NCCCCCC(=O)NCCCC[C@H](NC(=O)C[C@H](Cc1ccccc1)NC(=O)[C@@H](CCCCN)NC(=O)[C@@H](NC(=O)[C@H](Cc1ccccc1)NC(=O)[C@@H]1CCCN1C(=O)[C@@H](NC(=O)[C@H](Cc1c[nH]cn1)NC(=O)[C@@H](NC(=O)[C@H](CCC(=O)O)NC(=O)CC(C)C)[C@@H](C)O)C(c1ccccc1)c1ccccc1)[C@@H](C)CC)C(N)=O
B12: Isovaleric Acid-E-T-H-[Dpa]-P-L-I-[(D)Lys]-[bhPhe]-[Lys(Ahx_Palm)]-[(D)Lys]-L-NH2 (peptide)
peptide: Isovaleryl-ETH[Dip]PLI[dK][β3hF]K([Ahx-Palmitoyl])[dK]L-NH2
SMILES: CCCCCCCCCCCCCCCC(=O)NCCCCCC(=O)NCCCC[C@H](NC(=O)C[C@H](Cc1ccccc1)NC(=O)[C@@H](CCCCN)NC(=O)[C@@H](NC(=O)[C@H](CC(C)C)NC(=O)[C@@H]1CCCN1C(=O)[C@@H](NC(=O)[C@H](Cc1c[nH]cn1)NC(=O)[C@@H](NC(=O)[C@H](CCC(=O)O)NC(=O)CC(C)C)[C@@H](C)O)C(c1ccccc1)c1ccccc1)[C@@H](C)CC)C(=O)N[C@H](CCCCN)C(=O)N[C@@H](CC(C)C)C(N)=O
B13: Isovaleric Acid-E-T-H-[Dpa]-[ButanoicP]-[bhPhe]-[Lys(Ahx_Palm)]-NH2 (peptide)
peptide: Isovaleryl-ETH[Dip][ButanoicP][β3hF]K([Ahx-Palmitoyl])-NH2
SMILES: CCCCCCCCCCCCCCCC(=O)NCCCCCC(=O)NCCCC[C@H](NC(=O)C[C@H](Cc1ccccc1)NC(=O)CCC[C@@H]1CCCN1C(=O)[C@@H](NC(=O)[C@H](Cc1c[nH]cn1)NC(=O)[C@@H](NC(=O)[C@H](CCC(=O)O)NC(=O)CC(C)C)[C@@H](C)O)C(c1ccccc1)c1ccccc1)C(N)=O
B14: Isovaleric Acid-L-T-H-[Dpa]-P-[(Me)Leu]-I-[Lys(Ahx_Palm)]-[(Me)Phe]-NH2 (peptide)
peptide: Isovaleryl-LTH[Dip]P[(Me)Leu]IK([Ahx-Palmitoyl])[NMeF]-NH2
B15: Isovaleric Acid-L-T-H-[Dpa]-P-A-I-[Lys(Ahx_Palm)]-[(Me)Leu]-NH2 (peptide)
peptide: Isovaleryl-LTH[Dip]PAIK([Ahx-Palmitoyl])[(Me)Leu]-NH2
B16: Isovaleric Acid-E-T-H-[Dpa]-P-L-I-[Lys(Ahx_Palm)]-[(Me)Phe]-NH2 (peptide)
peptide: Isovaleryl-ETH[Dip]PLIK([Ahx-Palmitoyl])[NMeF]-NH2
B17: Isovaleric Acid-E-T-H-[Dpa]-P-A-I-[Lys(Ac)]-NH2 (peptide)
peptide: Isovaleryl-ETH[Dip]PAIK(Ac)-NH2
SMILES: CC[C@H](C)[C@H](NC(=O)[C@H](C)NC(=O)[C@@H]1CCCN1C(=O)[C@@H](NC(=O)[C@H](Cc1c[nH]cn1)NC(=O)[C@@H](NC(=O)[C@H](CCC(=O)O)NC(=O)CC(C)C)[C@@H](C)O)C(c1ccccc1)c1ccccc1)C(=O)N[C@@H](CCCCNC(C)=O)C(N)=O
B18: Isovaleric Acid-L-T-H-[Dpa]-P-A-I-[Lys(1PEG2_1PEG2_Ahx_C18_Diacid)]-[bhPhe]-[(D)Lys]-NH2 (peptide)
peptide: Isovaleryl-LTH[Dip]PAIK([AEEA-AEEA-Ahx-C18 diacid])[β3hF][dK]-NH2
B19: Isovaleric Acid-R-T-H-[Dpa]-P-A-I-[Lys(1PEG2_1PEG2_Ahx_C18_Diacid)]-[bhPhe]-[(D)Lys]-NH2 (peptide)
peptide: Isovaleryl-RTH[Dip]PAIK([AEEA-AEEA-Ahx-C18 diacid])[β3hF][dK]-NH2
SMILES: CC[C@H](C)[C@H](NC(=O)[C@H](C)NC(=O)[C@@H]1CCCN1C(=O)[C@@H](NC(=O)[C@H](Cc1c[nH]cn1)NC(=O)[C@@H](NC(=O)[C@H](CCCNC(=N)N)NC(=O)CC(C)C)[C@@H](C)O)C(c1ccccc1)c1ccccc1)C(=O)N[C@@H](CCCCNC(=O)COCCOCCNC(=O)COCCOCCNC(=O)CCCCCNC(=O)CCCCCCCCCCCCCCCCC(=O)O)C(=O)N[C@H](CC(=O)N[C@H](CCCCN)C(N)=O)Cc1ccccc1
B20: Isovaleric Acid-E-T-H-[Dpa]-P-A-[Lys(Ac)]-NH2 (peptide)
peptide: Isovaleryl-ETH[Dip]PAK(Ac)-NH2
SMILES: CC(=O)NCCCC[C@H](NC(=O)[C@H](C)NC(=O)[C@@H]1CCCN1C(=O)[C@@H](NC(=O)[C@H](Cc1c[nH]cn1)NC(=O)[C@@H](NC(=O)[C@H](CCC(=O)O)NC(=O)CC(C)C)[C@@H](C)O)C(c1ccccc1)c1ccccc1)C(N)=O
B21: Isovaleric Acid-E-T-H-[Dpa]-P-E-I-[(D)Lys]-[bhPhe]-[Lys(Ahx_Palm)]-NH2 (peptide)
peptide: Isovaleryl-ETH[Dip]PEI[dK][β3hF]K([Ahx-Palmitoyl])-NH2
SMILES: CCCCCCCCCCCCCCCC(=O)NCCCCCC(=O)NCCCC[C@H](NC(=O)C[C@H](Cc1ccccc1)NC(=O)[C@@H](CCCCN)NC(=O)[C@@H](NC(=O)[C@H](CCC(=O)O)NC(=O)[C@@H]1CCCN1C(=O)[C@@H](NC(=O)[C@H](Cc1c[nH]cn1)NC(=O)[C@@H](NC(=O)[C@H](CCC(=O)O)NC(=O)CC(C)C)[C@@H](C)O)C(c1ccccc1)c1ccccc1)[C@@H](C)CC)C(N)=O
B22: Isovaleric Acid-E-T-H-[Dpa]-P-S-I-[(D)Lys]-[bhPhe]-[Lys(Ahx_Palm)]-NH2 (peptide)
peptide: Isovaleryl-ETH[Dip]PSI[dK][β3hF]K([Ahx-Palmitoyl])-NH2
SMILES: CCCCCCCCCCCCCCCC(=O)NCCCCCC(=O)NCCCC[C@H](NC(=O)C[C@H](Cc1ccccc1)NC(=O)[C@@H](CCCCN)NC(=O)[C@@H](NC(=O)[C@H](CO)NC(=O)[C@@H]1CCCN1C(=O)[C@@H](NC(=O)[C@H](Cc1c[nH]cn1)NC(=O)[C@@H](NC(=O)[C@H](CCC(=O)O)NC(=O)CC(C)C)[C@@H](C)O)C(c1ccccc1)c1ccccc1)[C@@H](C)CC)C(N)=O

Target: T1, human ferroportin (SLC40A1) fused in frame with GFP, stably expressed in HEK293 cells (human, UniProt Q9NP59 1-571)
T1 sequence (looked up): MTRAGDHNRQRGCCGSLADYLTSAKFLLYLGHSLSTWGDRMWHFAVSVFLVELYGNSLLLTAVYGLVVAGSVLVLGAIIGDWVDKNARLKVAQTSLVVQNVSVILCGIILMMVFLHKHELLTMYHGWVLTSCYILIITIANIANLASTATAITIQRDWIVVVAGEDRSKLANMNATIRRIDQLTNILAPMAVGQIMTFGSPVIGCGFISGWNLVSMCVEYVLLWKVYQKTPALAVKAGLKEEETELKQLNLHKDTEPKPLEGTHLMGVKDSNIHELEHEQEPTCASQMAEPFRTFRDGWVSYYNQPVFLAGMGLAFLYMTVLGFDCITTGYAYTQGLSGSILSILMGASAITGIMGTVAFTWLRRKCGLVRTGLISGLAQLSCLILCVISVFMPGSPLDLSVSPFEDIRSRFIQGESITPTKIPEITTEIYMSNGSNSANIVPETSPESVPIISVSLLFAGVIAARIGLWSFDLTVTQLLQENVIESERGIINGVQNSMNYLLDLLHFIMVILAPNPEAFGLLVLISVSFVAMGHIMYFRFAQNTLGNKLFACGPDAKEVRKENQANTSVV
Test: cell-based or functional assay

First: B1
Second: B2
The “FPN EC50” value of the first is 2.8-fold lower: 287 nM for the first, 814 nM for the second.

First: B3
Second: B4
The “FPN EC50” value of the first is 32-fold higher: 732 nM for the first, 22.9 nM for the second.

Compared with B5, B6 is 4.8-fold higher in “FPN EC50” value: 1750 nM for the first, 8410 nM for the second.

Going from B7 to B8, the “FPN EC50” value falls from 2760 nM to 764 nM (3.6-fold).

Going from B9 to B10, the “FPN EC50” value falls from 593 nM to 31.9 nM (19-fold).

Going from B11 to B12, the “FPN EC50” value falls from 24.1 nM to 4.5 nM (5.4-fold).

Going from B13 to B14, the “FPN EC50” value rises from 71.2 nM to 2290 nM (32-fold).

Compared with B15, B16 is 19-fold lower in “FPN EC50” value: 508 nM for the first, 27.2 nM for the second.

Going from B17 to B18, the “FPN EC50” value falls from 1040 nM to 65.7 nM (16-fold).

First: B19
Second: B20
The “FPN EC50” value of the first is 740-fold lower: 48.5 nM for the first, 35700 nM for the second.

First: B21
Second: B22
The “FPN EC50” value of the first is 15-fold higher: 682 nM for the first, 46.3 nM for the second.
